Assay results: paper PMC12444563 (ACS Omega, 2025)
Read-outs that look alike come from different tables or passages of the source. Starred links: 1 amine or outer side, 2 acyl side, 3 side chain; linkers in the order of their positions; H or OH if unused. Non-standard residues stand in square brackets, D forms with d. Residues, ends and D or L forms follow the SMILES beside them. *: point of attachment. Paclitaxel(2'-OCO-DMEDA) = CC(=O)O[C@H]1C(=O)[C@@]2(C)[C@H]([C@H](OC(=O)c3ccccc3)[C@]3(O)C[C@H](OC(=O)[C@H](OC(=O)N(C)CCN(C)*)[C@@H](NC(=O)c4ccccc4)c4ccccc4)C(C)=C1C3(C)C)[C@]1(OC(C)=O)CO[C@@H]1C[C@@H]2O; Fmoc = O=C(OCC1c2ccccc2-c2ccccc21)*; PABC = O=C(OCc1ccc(N[*:1])cc1)[*:2]

What was measured:
[1] = pH stability assay (buffers pH 5.4 and 7.4, UHPLC-HRMS); assay type: physicochemical; conditions: 37 °C, average of two replicates
Description: The pH stability assay was performed by incubating compounds 1–4 at 37 °C in buffers at pH 5.4 and 7.4 under gentle shaking conditions. More specifically, a solution of 20 mM AcONa and 1 mM EDTA in mQ water was used as a pH 5.4 buffer. A solution of PBS tablets in mQ water was used as a pH 7.4 buffer. A 1 mM stock solution of compounds 1–4 in dry DMSO was prepared and a […] solution was then obtained by dilution of 5.85 μL of the stock solution in 44.15 μL of dry DMSO. Then, 6 μL of the […] compound solution was diluted into 135 μL of the desired buffer, and the solution was incubated at 37 °C under gently shaking conditions. Samples aliquots (10 μL) were taken out at 15, 30 min and 1, 2, and 4 h and quenched with 10 μL of acetonitrile. The solutions were then injected in UHPLC-HRMS to monitor the stability of compounds 1–4 under different pH conditions. UHPLC-MS analyses were carried out as previously described for the Cathepsin B cleavage assay. The percentage of the residual compound was calculated as described above.
The stability of compounds 1–4 and of the free drug PTX was evaluated in vitro by UHPLC-Orbitrap analysis incubating the samples at 37 °C in buffer solutions at pH 5.4, to simulate the pH inside the cancer cells, and at physiological pH 7.4. The same buffer of the Cathepsin B cleavage assay was used for the test at pH 5.4. The percentage of residual compounds 1–4 was measured over time by calculating the ratio between the areas of the peak of the full compound at the desired time point and at time zero, and the results were compared with the percentage of residual compounds 1–4 calculated during the Cathepsin B cleavage assay (Tables S6).

[2] = Plasma stability assay, rat plasma; assay type: in vitro ADME, rat (Sprague Dawley); conditions: 37 °C; for remaining at 0.5 h, 1 μM / remaining at 2 h, 1 μM / remaining at 4 h, 1 μM: Sprague Dawley, read-out: Plasma stability (matrix: rat) % remaining; for remaining at 0.5 h, 1 μM: 30 min; for remaining at 2 h, 1 μM: 120 min
Description: (§1) The plasma stability assays were performed by Selvita SA (Krakow, Poland) following the protocol described in the Supporting Information. For the use of human plasma, consent was obtained from the subject or from the next of kin.
(§2) 9. Plasma stability assays
(§3) Protocol for full plasma assay: a stock solution of compounds 1-4 in DMSO was incubated in human (Anticoagulants: Na Heparin; Gender: Pooled; Cat. No: IPLANAH100ML; Lot: 37921; Supplier:
(§4) Innovative Research) and rat (Strain: Sprague Dawley; Anticoagulants: Na Heparin; Cat. No:
(§5) IGRTSDPLANAH100ML; Supplier: Innovative Research) plasma at a final concentration of 1 μM (final concentration of DMSO = 1 %). The samples were incubated at 37 °C with a shaking of 450 rpm. Aliquots of the samples were analyzed at time 0, 30 minutes, 2 and 4 hours by LC-MS/MS […]
(§6) The areas of the peak of the compounds 1-4 in the LC chromatogram were used to evaluate stability profile. The percentage of residual compounds 1-4 was calculated as the ratio between the area of the peak of the analyte and the area of the internal standard.
(§7) % residual compound = Area analyte ∙ 100
(§8) Table S7. LC-MS data of the stability assays in plasma extracts of compound 1.
(§9) Stability assays compound 1
(§10) Time Plasma stability Plasma stability S9 stability S9 stability
(§11) (min.) (matrix: rat) (matrix: human) Time (min.) (matrix: rat) (matrix: human) % remaining % remaining % remaining % remaining
(§12) Table S8. LC-MS data of the stability assays in plasma extracts of compound 2.
(§13) Stability assays compound 2

[3] = Plasma stability assay, human plasma; assay type: in vitro ADME; conditions: 37 °C; for remaining at 0.5 h, 1 μM / remaining at 2 h, 1 μM / remaining at 4 h, 1 μM: both sexes, read-out: Plasma stability (matrix: human) % remaining; for remaining at 0.5 h, 1 μM: 30 min; for remaining at 2 h, 1 μM: 120 min
Description: as §1, §2, §3, §4, §5, §6, §7, §8, §9, §10, §11, §12, §13

[4] = Liver S9 fraction stability assay, rat; assay type: in vitro ADME; conditions: 37 °C; for remaining at 0.5 h, 1 μM / remaining at 1.5 h, 1 μM: male, liver S9 fraction, read-out: S9 stability (matrix: rat) % remaining; for remaining at 0.5 h, 1 μM: 30 min
Description: as §1
(§14) 9. Plasma stability assays […]
(§15) Protocol for S9 fraction: a stock solution of compounds 1-4 in DMSO was incubated in human (male, pooled, commercially obtained from Xeno-tech lot: 2310104) and rat (male, pooled, commercially obtained from Xeno-tech (lot: 2210317)) S9 fraction at a final concentration of 1 μM (final concentration of DMSO = 0.5 %). The samples were incubated at 37 °C with a shaking of 450 rpm.
(§16) Aliquots of the samples were analyzed at time 0, 30 and 90 minutes by LC-MS/MS analysis.
as §6, §7, §8, §9, §10, §11, §12, §13

[5] = Liver S9 fraction stability assay, human; assay type: in vitro ADME; conditions: 37 °C; for remaining at 0.5 h, 1 μM / remaining at 1.5 h, 1 μM: male, liver S9 fraction, read-out: S9 stability (matrix: human) % remaining; for remaining at 0.5 h, 1 μM: 30 min
Description: as §1, §14, §15, §16, §6, §7, §8, §9, §10, §11, §12, §13

[6] = PBS pH 7.4, pH 7.4 PBS, 30 min, read-out: Stability pH 7.4, % residual compound
[7] = acetate/EDTA buffer pH 5.4, pH 5.4 buffer, 120 min, read-out: Stability pH 5.4, % residual compound
[8] = acetate/EDTA buffer pH 5.4, pH 5.4 buffer, 240 min (4 h), read-out: Stability pH 5.4, % residual compound

SMILES | remaining at 0.5 h, 4.98 µM [1, 6] [%] | Stability pH 5.4, % residual compound ([1]; pH 5.4 buffer, 30 min) [%] | Stability pH 5.4, % residual compound ([1]; pH 5.4 buffer, 240 min (4 h)) [%] | Stability pH 7.4, % residual compound ([1]; pH 7.4 PBS, 120 min) [%] | Stability pH 7.4, % residual compound ([1]; pH 7.4 PBS, 240 min) [%] | remaining at 0.5 h, 1 μM ([2]; rat, plasma) [%] | remaining at 2 h, 1 μM ([2]; rat, plasma) [%] | remaining at 4 h, 1 μM ([2]; rat, plasma, 240 min (4 h)) [%] | remaining at 0.5 h, 1 μM ([3]; human, plasma) [%] | remaining at 2 h, 1 μM ([3]; human, plasma) [%] | remaining at 4 h, 1 μM ([3]; human, plasma, 240 min (4 h)) [%] | remaining at 0.5 h, 1 μM ([4]; rat) [%] | remaining at 1.5 h, 1 μM ([4]; rat, 90 min (1.5 h)) [%] | remaining at 0.5 h, 1 μM ([5]; human) [%] | remaining at 1.5 h, 1 μM ([5]; human, 90 min (1.5 h)) [%] | remaining at 2 h, 4.98 µM [1, 7] [%] | remaining at 4 h, 4.98 µM [1, 8] [%] | also measured
CC(=O)O[C@H]1C(=O)[C@@]2(C)[C@H]([C@H](OC(=O)c3ccccc3)[C@]3(O)C[C@H](OC(=O)[C@H](OC(=O)N(C)CCN(C)C(=O)OCc4ccc(NC(=O)CNC(=O)[C@H](CC(C)C)NC(=O)[C@@H]5CCCN5C(=O)CNC(=O)OCC5c6ccccc6-c6ccccc65)cc4)[C@@H](NC(=O)c4ccccc4)c4ccccc4)C(C)=C1C3(C)C)[C@]1(OC(C)=O)CO[C@@H]1C[C@@H]2O [Compound 1, Fmoc-GPLG-PABC-diamine-PTX] (Fmoc-GPLG[PABC]-{Paclitaxel(2'-OCO-DMEDA)}) | 115 | 93.60 | 93.78 | 97.00 | 113.04 | 98.1 | 111 | 103 | 98.9 | 117 | 112 | 88.8 | 94.5 | 104 | 95 |  |  | Stability pH 5.4, % residual compound ([1]; pH 5.4 buffer, 120 min): 93.87%; Plasma stability (matrix: rat) % remaining ([2]; 1 μM, 240 min (4 h)): 100%; Plasma stability (matrix: human) % remaining ([3]; 1 μM, 240 min (4 h)): 100%
CC(=O)O[C@H]1C(=O)[C@@]2(C)[C@H]([C@H](OC(=O)c3ccccc3)[C@]3(O)C[C@H](OC(=O)[C@H](OC(=O)N(C)CCN(C)C(=O)OCc4ccc(NC(=O)CNC(=O)[C@H](CC(C)C)NC(=O)[C@H](Cc5ccccc5)NC(=O)CNC(=O)OCC5c6ccccc6-c6ccccc65)cc4)[C@@H](NC(=O)c4ccccc4)c4ccccc4)C(C)=C1C3(C)C)[C@]1(OC(C)=O)CO[C@@H]1C[C@@H]2O [Compound 2, Fmoc-GFLG-PABC-diamine-PTX] (Fmoc-GFLG[PABC]-{Paclitaxel(2'-OCO-DMEDA)}) | 90.6 | 92.49 |  |  | 91.99 | 92.1 | 99 | 103 | 102 | 104 | 93.9 | 72.8 | 61.8 | 133 | 95.2 | 85.4 | 86.8 | remaining at 2 h, 4.98 µM ([1]; PBS pH 7.4, pH 7.4 PBS, 120 min, read-out: Stability pH 7.4, % residual compound): 90.5%
CC(=O)O[C@H]1C(=O)[C@@]2(C)[C@H]([C@H](OC(=O)c3ccccc3)[C@]3(O)C[C@H](OC(=O)[C@H](OC(=O)N(C)CCN(C)C(=O)OCc4ccc(NC(=O)[C@H](CCCNC(N)=O)NC(=O)[C@@H](NC(=O)OCC5c6ccccc6-c6ccccc65)C(C)C)cc4)[C@@H](NC(=O)c4ccccc4)c4ccccc4)C(C)=C1C3(C)C)[C@]1(OC(C)=O)CO[C@@H]1C[C@@H]2O [Compound 3, Fmoc-VCit-PABC-diamine-PTX] |  | 96.15 |  | 95.93 |  |  |  |  |  |  |  |  |  |  |  |  |  | remaining at 4 h, 4.98 µM ([1]; PBS pH 7.4, pH 7.4, pH 7.4 PBS, 240 min, read-out: Stability pH 7.4, % residual compound): 92%; remaining at 2 h, 4.98 µM ([1]; acetate/EDTA buffer pH 5.4, pH 5.4, pH 5.4 buffer, 120 min, read-out: Stability pH 5.4, % residual compound): 96.6%; remaining at 4 h, 4.98 µM ([1]; acetate/EDTA buffer pH 5.4, pH 5.4, pH 5.4 buffer, 240 min (4 h), read-out: Stability pH 5.4, % residual compound): 89.9%; Stability pH 7.4, % residual compound ([1]; pH 7.4 PBS, 30 min): 95.79%; remaining at 0.5 h, 1 μM [2]: 123%; remaining at 2 h, 1 μM [2]: 113%; remaining at 4 h, 1 μM ([2]; 240 min (4 h)): 118%; remaining at 0.5 h, 1 μM [3]: 102%; remaining at 2 h, 1 μM [3]: 98.3%; remaining at 4 h, 1 μM ([3]; 240 min (4 h)): 77.1%; remaining at 0.5 h, 1 μM [4]: 86.5%; remaining at 1.5 h, 1 μM ([4]; 90 min (1.5 h)): 42.6%; remaining at 0.5 h, 1 μM [5]: 133%; remaining at 1.5 h, 1 μM ([5]; 90 min (1.5 h)): 95.2%
CC(=O)O[C@H]1C(=O)[C@@]2(C)[C@H]([C@H](OC(=O)c3ccccc3)[C@]3(O)C[C@H](OC(=O)[C@H](OC(=O)N(C)CCN(C)C(=O)OCc4ccc(NC(=O)[C@H](C)NC(=O)[C@@H](NC(=O)OCC5c6ccccc6-c6ccccc65)C(C)C)cc4)[C@@H](NC(=O)c4ccccc4)c4ccccc4)C(C)=C1C3(C)C)[C@]1(OC(C)=O)CO[C@@H]1C[C@@H]2O [Compound 4, Fmoc-VA-PABC-diamine-PTX] | 94.7 |  | 47.4 | 96.21 | 95.00 | 96.1 | 104 | 108 | 101 | 106 | 107 | 81.1 | 81.2 | 107 | 79.7 | 52.5 | 47.5 | remaining at 0.5 h, 4.98 µM ([1]; acetate/EDTA buffer pH 5.4, pH 5.4 buffer, 30 min, read-out: Stability pH 5.4, % residual compound): 90.8%; S9 stability (matrix: rat) % remaining ([4]; 1 μM, 90 min (1.5 h)): 81.17%; S9 stability (matrix: human) % remaining ([5]; 1 μM, 90 min (1.5 h)): 79.75%
